Literature values as cited in patent US10525162B2, “Sophorolipid mediated accelerated gelation of silk fibroin” (COUNCIL OF SCIENTIFIC & INDUSTRIAL RESEARCH, priority 2014, dated 2020).

Conditions: aqueous SF solution without additive, below the isoelectric pH

SF: Silk fibroin, fibrous protein derived from silkworm Bombyx mori
gelation time: 10 to 16 h
